B1: Get3 from zebra fish (recombinant Get3/TA complex) (natural protein)
chain: not shown
notes: Get3 of zebra fish (Danio rerio); also called zebra fish Get3; source: recombinant, purified as Get3/TA complex
B2: Get3 from yeast (recombinant Get3/TA complex) (natural protein, UniProt Q12154 1-354, looked up)
chain: MDLTVEPNLHSLITSTTHKWIFVGGKGGVGKTTSSCSIAIQMALSQPNKQFLLISTDPAHNLSDAFGEKFGKDARKVTGMNNLSCMEIDPSAALKDMNDMAVSRANNNGSDGQGDDLGSLLQGGALADLTGSIPGIDEALSFMEVMKHIKRQEQGEGETFDTVIFDTAPTGHTLRFLQLPNTLSKLLEKFGEITNKLGPMLNSFMGAGNVDISGKLNELKANVETIRQQFTDPDLTTFVCVCISEFLSLYETERLIQELISYDMDVNSIIVNQLLFAENDQEHNCKRCQARWKMQKKYLDQIDELYEDFHVVKMPLCAGEIRGLNNLTKFSQFLNKEYNPITDGKVIYELEDKE
notes: Get3 of yeast; also called yeast Get3; source: recombinant, purified as Get3/TA complex

Target: the molecule itself
Assay: SEC; recombinant Get3/TA complex from yeast or zebra fish; SEC and SDS-PAGE (Fig. S10); conditions not shown

Protein	stoichiometry N
B1	2
B2	2
